# Results from paper PMC6356861 (ACS Omega, 2019).
# B1: simian virus 40 (SV40) major capsid protein VP1, as soluble VP1 pentamers (natural protein)
# chain: APTKRKGSCPGAAPKKPKEPVQVPKLVIKGGIEVLGVKTGVDSFTEVECFLNPQMGNPDEHQKGLSKSLAAEKQFTDDSPDKEQLPCYSVARIPLPNINEDLTCGNILMWEAVTVKTEVIGVTAMLNLHSGTQKTHENGAGKPIQGSNFHFFAVGGEPLELQGVLANYRTKYPAQTVTPKNATVDSQQMNTDHKAVLDKDNAYPVECWVPDPSKNENTRYFGTYTGGENVPPVLHITNTATTVLLDEQGVGPLCKADSLYVSAVDICGLFTNTSGTQQWKGLPRYFKITLRKRSVKNPYPISFLLSDLINRRTQRVDGQPMIGMSSQVEEVRVYEDTEELPGDPDMIRYIDEFGQTTTRMQ
# Target: the molecule itself
# Experiment: SAXS
protein,measurement,value
B1,binding result,binds
